In patent US20140178935A1 (AVEO PHARMACEUTICALS, published 2014):
Where two headings read alike, the source gives them in different places. Blank lines part the entries; values can stand above or below the binder they belong to.

Columns and labels:
[1] = target: T1, recombinant human HGF (R&D Systems, Catalog No. 294-HGN-025) (human, UniProt P14210 32-728); test: cell-based or functional assay
[2] = target: T1, recombinant human HGF (R&D Systems, …); test: cell-based or functional assay; remark: listed apart in the source
[3] = target: T1, recombinant human HGF (R&D Systems, …); test: cell-based or functional assay; remark: listed apart in the source
[4] = target: T1, recombinant human HGF (R&D Systems, …); test: SPR, captured antibody, HGF injected, 25 C
Description: (§1) Mouse anti-human immunoglobulins (Jackson Labs, Catalog No. 209-005) were immobilized on carboxymethylated dextran CM4 sensor chips (BIAcore, Catalog No. BR-1006-68) by amine coupling (BIAcore, Catalog No. BR-1000-50) using a standard coupling protocol according to manufacturer's instructions. The analyses were performed at 25° C. using PBS (GIBCO, Catalog No. 14040-133) containing 0.05% surfactant P20 (BIAcore, Catalog No. BR-1000-54), and 2 mg/mL BSA (EMD, Catalog No. 2930).
(§2) The antibodies were captured in an individual flow cell at a flow rate of 10 μL/min. Injection time was variable for each antibody to yield approximately 20 RU of antibody captured for each cycle. […] The dissociation phase was monitored for 15 or 90 minutes, depending on concentration. The surface then was regenerated with 10 mM Glycine-HCl, pH 2.2 (BIAcore, Catalog No. BR-1003-54) injected for 3 minutes at a flow rate of 60 μL/min before another cycle was initiated.
Kinetic parameters were determined using the kinetic function of the BIAevalutation™ software with reference subtraction.

[5] = target: T1, recombinant human HGF (R&D Systems, …); test: SPR, captured antibody, HGF injected, 25 C; remark: listed apart in the source
Description: as §1, with “209-005) or rabbit anti-mouse immunoglobulins (BIAcore, Catalog No. BR-1005-14)” for “209-005)”, “instructions. […]” for “instructions.”, “25° C. and 37°” for “25°”, “2930) as running buffer.” for “2930).”
as §2, with “[…].” for “μL/min.”, “surface of mouse anti-human immunoglobulins sensor chips was” for “surface”, “then” for “then was”, “initiated. The surface of rabbit anti-mouse immunoglobulins sensor chips was regenerated with 10 mM Glycine-HCl, pH 1.7 (BIAcore, Catalog No. BR-1003-54) injected for 3 minutes at a flow rate of 60 μL/min before another cycle was initiated.” for “initiated.”
(§3) Kinetic parameters were determined using the kinetic function of the BIAevaluation software with reference subtraction.

[6] = target: T1, recombinant human HGF (R&D Systems, …); test: SPR, captured antibody, HGF injected, 37 C
Description: as §1, with “209-005) or rabbit anti-mouse immunoglobulins (BIAcore, Catalog No. BR-1005-14)” for “209-005)”, “instructions. […]” for “instructions.”, “25° C. and 37°” for “25°”, “2930) as running buffer.” for “2930).”
as §2, with “[…].” for “μL/min.”, “surface of mouse anti-human immunoglobulins sensor chips was” for “surface”, “then” for “then was”, “initiated. The surface of rabbit anti-mouse immunoglobulins sensor chips was regenerated with 10 mM Glycine-HCl, pH 1.7 (BIAcore, Catalog No. BR-1003-54) injected for 3 minutes at a flow rate of 60 μL/min before another cycle was initiated.” for “initiated.”
as §3

[7] = target: hHGF-Fc G555E (recombinant hHGF protein containing a glycine to glutamate substitution at position 555) (human); test: SPR, antibody immobilized, HGF protein injected, 25 C
Chain of hHGF-Fc G555E (recombinant hHGF protein containing a glycine to glutamate substitution at position 555) (human) (chain, as listed by the source G555E G555E limits assumed): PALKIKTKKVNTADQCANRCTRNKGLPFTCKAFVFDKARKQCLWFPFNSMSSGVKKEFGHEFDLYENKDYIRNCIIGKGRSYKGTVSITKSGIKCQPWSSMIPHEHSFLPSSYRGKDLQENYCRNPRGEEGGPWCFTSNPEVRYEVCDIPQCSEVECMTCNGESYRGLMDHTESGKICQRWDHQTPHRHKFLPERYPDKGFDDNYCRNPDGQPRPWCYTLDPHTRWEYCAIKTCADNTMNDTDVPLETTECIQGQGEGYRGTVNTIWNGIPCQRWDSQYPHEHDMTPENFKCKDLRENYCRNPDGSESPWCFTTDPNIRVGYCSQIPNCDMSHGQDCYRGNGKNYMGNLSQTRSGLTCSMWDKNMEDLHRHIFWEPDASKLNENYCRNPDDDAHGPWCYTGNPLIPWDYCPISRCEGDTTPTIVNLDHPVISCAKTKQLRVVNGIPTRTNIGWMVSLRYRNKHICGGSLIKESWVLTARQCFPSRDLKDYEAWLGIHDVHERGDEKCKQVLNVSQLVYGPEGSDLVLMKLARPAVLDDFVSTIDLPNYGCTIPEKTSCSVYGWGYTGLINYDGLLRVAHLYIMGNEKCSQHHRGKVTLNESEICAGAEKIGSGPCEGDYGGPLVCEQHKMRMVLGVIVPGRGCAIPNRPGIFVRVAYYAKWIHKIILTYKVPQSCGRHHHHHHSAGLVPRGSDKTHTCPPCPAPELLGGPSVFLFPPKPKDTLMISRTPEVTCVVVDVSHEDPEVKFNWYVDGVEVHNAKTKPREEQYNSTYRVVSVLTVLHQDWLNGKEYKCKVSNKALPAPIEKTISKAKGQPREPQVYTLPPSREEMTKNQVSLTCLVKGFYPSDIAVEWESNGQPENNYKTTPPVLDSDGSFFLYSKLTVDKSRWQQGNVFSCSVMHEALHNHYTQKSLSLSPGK
Description: (§4) Each antibody was immobilized on a carboxymethylated dextran CM5 sensor chip (BIAcore, Catalog No. BR-1006-68) by amine coupling (BIAcore, Catalog No. BR-1000-50) using a standard coupling protocol according to manufacturer's instructions.
(§5) Analyses were performed at 25° C. using PBS (GIBCO, Catalog No. 14040-133) containing 0.05% surfactant P20 (BIAcore, Catalog No. R-1000-54), 2 mg/mL BSA (EMD, Catalog No. 2930) and 10 mg/mL CM-Dextran Sodium salt (Fluka, Catalog No. 86524) as running buffer. […] The resulting binding was determined as resonance units (RU) over baseline 30 seconds after the end of injection. […] Non-specific binding was monitored by comparing binding to a control surface where mouse IgG (Rockland, Catalog No. 010-0102) was immobilized using the same amine coupling procedure.

[8] = target: hHGF-Fc C561R (recombinant hHGF protein containing a cysteine to arginine substitution at position 561) (human); test: as above
Chain of hHGF-Fc C561R (recombinant hHGF protein containing a cysteine to arginine substitution at position 561) (human) (chain, as listed by the source C561R C561R limits assumed): as the sequence (chain, as listed by the source G555E G555E limits assumed) above, with E501G, C507R counted along it
Description: as §4, §5

[9] = target: T1, recombinant human HGF (R&D Systems, …); test: competition ELISA (DELFIA): antibody inhibits c-Met binding to plate-coated HGF
Description: The plates then were blocked with 200 μL of 5% non-fat dry milk in PBS for 1 hour at room temperature. […] 100 μL of sample per well was transferred to the assay plate and incubated overnight at 4° C.
The resulting plates then were washed three times with PBS-0.1% Tween 20, and incubated for 1 hour at room temperature with Eu-labeled Streptavidin (Wallac, Catalog No. 1244-360) diluted 1:1000 in DELFIA assay buffer (Wallac, Catalog No. 4002-0010). The resulting plates were washed 3 times with DELFIA wash solution (Wallac, Catalog No. 4010-0010) and incubated with 100 μL/well DELFIA enhancement solution (Wallac #4001-0010) for 15 minutes at room temperature with agitation.
The plates were read on Victor³V instrument (Perkin Elmer) using the Europium method.

T1 sequence (P14210 32-728 limits assumed): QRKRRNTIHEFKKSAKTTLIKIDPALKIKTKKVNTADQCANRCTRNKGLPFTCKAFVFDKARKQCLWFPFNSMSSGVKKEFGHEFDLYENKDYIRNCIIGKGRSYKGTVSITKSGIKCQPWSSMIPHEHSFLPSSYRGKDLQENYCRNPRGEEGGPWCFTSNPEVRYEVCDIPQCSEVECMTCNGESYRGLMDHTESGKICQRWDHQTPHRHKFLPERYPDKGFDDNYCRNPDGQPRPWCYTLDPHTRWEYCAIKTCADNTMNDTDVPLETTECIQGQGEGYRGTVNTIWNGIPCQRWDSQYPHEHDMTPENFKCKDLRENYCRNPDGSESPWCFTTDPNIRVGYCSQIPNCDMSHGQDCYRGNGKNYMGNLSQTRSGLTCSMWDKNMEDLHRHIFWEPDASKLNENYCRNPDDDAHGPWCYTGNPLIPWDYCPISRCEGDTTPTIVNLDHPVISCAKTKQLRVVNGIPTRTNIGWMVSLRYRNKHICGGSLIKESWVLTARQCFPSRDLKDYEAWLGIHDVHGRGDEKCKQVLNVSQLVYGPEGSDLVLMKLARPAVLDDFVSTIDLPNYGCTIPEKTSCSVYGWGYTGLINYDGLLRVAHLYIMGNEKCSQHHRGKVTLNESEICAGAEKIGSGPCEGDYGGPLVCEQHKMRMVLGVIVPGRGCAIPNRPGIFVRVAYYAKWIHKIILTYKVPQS

- IC50, neutralization of HGF stimulated BrdU incorporation in 4 MBr-5 cells [1]: 1410 pM
- EC50, inhibition of HGF-stimulated c-Met phosphorylation in PC-3 cells, Average of Two Trials [2]: 287 pM
- EC50, inhibition of HGF-stimulated c-Met phosphorylation in PC-3 cells, Average of Two Trials [3]: 910 pM
- Kd [4]: 7.3 pM
- koff [4]: 1e-05 s⁻¹
- kon [4]: 1.4e+06 M⁻¹ s⁻¹
- Kd [5]: 13.5 pM
- koff [5]: 2.1e-05 s⁻¹
- kon [5]: 1.6e+06 M⁻¹ s⁻¹
- Kd [6]: 4.5 pM
- koff [6]: 1.3e-05 s⁻¹
- kon [6]: 2.8e+06 M⁻¹ s⁻¹
- binding result [7]: binds
- binding result [8]: binds
- IC50 [9]: 5570 pM
B1: anti-hHGF monoclonal antibody 2B8 (antibody, mouse IgG1, kappa)
heavy: QVQLQQPGAELVKPGTSVKLSCKASGYTFTTYWMHWVNQRPGQGLEWIGEINPTNGHTNYNEKFKSKATLTVDKSSSTAYMQLSSLTSEDSAVYYCARNYVGSIFDYWGQGTTLTVSSAKTTPPSVYPLAPGSAAQTNSMVTLGCLVKGYFPEPVTVTWNSGSLSSGVHTFPAVLQSDLYTLSSSVTVPSSTWPSETVTCNVAHPASSTKVDKKIVPRDCGCKPCICTVPEVSSVFIFPPKPKDVLTITLTPKVTCVVVDISKDDPEVQFSWFVDDVEVHTAQTQPREEQFNSTFRSVSELPIMHQDWLNGKEFKCRVNSAAFPAPIEKTISKTKGRPKAPQVYTIPPPKEQMAKDKVSLTCMITDFFPEDITVEWQWNGQPAENYKNTQPIMDTDGSYFVYSKLNVQKSNWEAGNTFTCSVLHEGLHNHHTEKSLSHSPGK
light: NIVMTQSPKSMSMSVGERVTLSCKASENVVSYVSWYQQKPAQSPKLLIYGASNRNTGVPDRFTGSGSATDFTLTISSVRAEDLADYHCGQSYNYPYTFGGGTRLEIKRADAAPTVSIFPPSSEQLTSGGASVVCFLNNFYPKDINVKWKIDGSERQNGVLNSWTDQDSKDSTYSMSSTLTLTKDEYERHNSYTCEATHKTSTSPIVKSFNRNEC
notes: Murine IgG1 kappa from hybridoma; also called murine 2B8; mouse 2B8

- EC50, inhibition of HGF-stimulated c-Met phosphorylation in PC-3 cells, Average of Two Trials [3]: 750 pM
- Kd [4]: 6.5 pM
- koff [4]: 1.1e-05 s⁻¹
- kon [4]: 1.7e+06 M⁻¹ s⁻¹
- Kd [5]: 5.6 pM
- koff [5]: 1.2e-05 s⁻¹
- kon [5]: 2e+06 M⁻¹ s⁻¹
- Kd [6]: 3.3 pM
- koff [6]: 1e-05 s⁻¹
- kon [6]: 3.1e+06 M⁻¹ s⁻¹
B2: HE2B8-4 (LRMR2B8HC + IgG1 constant region G1m(3) allotype allele 1, plus LRMR2B8LC + Kappa constant region Km(3) allotype allele 1) (antibody, V domains shown)
VH: QVQLVQPGAEVKKPGTSVKLSCKASGYTFTTYWMHWVRQAPGQGLEWIGEINPTNGHTNYNQKFQGRATLTVDKSTSTAYMELSSLRSEDTAVYYCARNYVGSIFDYWGQGTLLTVSS
VL: DIVMTQSPDSLAMSLGERVTLNCKASENVVSYVSWYQQKPGQSPKLLIYGASNRESGVPDRFSGSGSATDFTLTISSVQAEDVADYHCGQSYNYPYTFGQGTKLEIKR
notes: Human Engineered 2B8 variant, human IgG1 kappa, made in HEK293E cells
